This is an account of results in PMC2835651.

In this data set the test system is Cc1cn([C@H]2C[C@H](O)[C@@H](COP(=O)(O)OP(=O)(O)OP(=O)(O)O)O2)c(=O)[nH]c1=O. Kind of data set: purified protein. To be noted: poly(rA)/oligo(dT)15 template/primer; 25-250 μM TTP; labelled compound.

Take PFV PR-RT (Human spumaretrovirus): the Km is listed as 45 (± 12) μM; the kcat (commonly the number of substrate molecules converted per active site and unit of time at saturation) was determined as 7.1 s⁻¹.
